Test [1] deals with NLuc/CXCR4 (genome-edited, HEK293 cells) (human (endogenous in HEK293), UniProt P61073 1-352). Kind of test: FRET or BRET.
Test [2] has as its target NLuc/CXCR4 (genome-edited, HeLa cells) (human (endogenous in HeLa), UniProt P61073 1-352). Kind of test: FRET or BRET.

NLuc/CXCR4 (genome-edited, HeLa cells), sequence (P61073 whole entry): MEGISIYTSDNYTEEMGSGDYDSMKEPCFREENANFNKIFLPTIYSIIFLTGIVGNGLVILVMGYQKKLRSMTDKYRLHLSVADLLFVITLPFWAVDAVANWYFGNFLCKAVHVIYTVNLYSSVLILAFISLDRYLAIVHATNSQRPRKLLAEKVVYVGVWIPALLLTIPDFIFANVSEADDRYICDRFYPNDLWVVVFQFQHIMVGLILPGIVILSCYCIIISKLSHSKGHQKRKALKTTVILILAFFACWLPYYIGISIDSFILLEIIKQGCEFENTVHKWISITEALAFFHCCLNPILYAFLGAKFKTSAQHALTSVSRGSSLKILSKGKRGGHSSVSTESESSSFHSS
NLuc/CXCR4 (genome-edited, HEK293 cells), sequence (P61073 whole entry): as above

B1: 24Leu-CXCL17 (ligand)
chain: LNPGVARGHRDRGQASRRWLQEGGQECECKDWFLRAPRRKFMTVSGLPKKQCPCDHFKGNVKKTRHQRHHRKPNKHSRACQQFLKQCQLRSFALPL
Take B1: the negative logarithm of the Ki (pKi) in test [1] is 6.14 ± 0.3; in test [2], 6.15 ± 0.27.

Values taken from doi:10.1101/2021.07.05.451109 (bioRxiv, 2021).
